Laboratory results as given in US20220153818A1 (UNIVERSITY COURT OF THE UNIVERSITY OF ABERDEEN, published 2022).

Experiments:
human serum albumin = molecular target: T1, human serum albumin (human, UniProt P02768 25-609); assay: ELISA
T1 construct: also called HSA

[1] = molecular target: T2, Recombinant Hyr1 N-terminus fragment (amino acids 63-350) with N-terminal 6xHis tag (Candida albicans, UniProt Q5AL03 63-350); assay: ELISA, plate coated with recombinant Hyr1 N-terminus, titrated IgG1
T2 sequence: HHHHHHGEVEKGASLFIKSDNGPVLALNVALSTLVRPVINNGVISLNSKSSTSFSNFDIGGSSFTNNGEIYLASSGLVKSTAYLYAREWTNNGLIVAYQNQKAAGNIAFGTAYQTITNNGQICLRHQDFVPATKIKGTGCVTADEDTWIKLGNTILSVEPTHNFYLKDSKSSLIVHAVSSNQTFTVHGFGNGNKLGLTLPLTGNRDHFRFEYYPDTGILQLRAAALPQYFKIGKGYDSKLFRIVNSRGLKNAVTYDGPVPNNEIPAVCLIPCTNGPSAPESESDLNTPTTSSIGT

T1 sequence (P02768 25-609 limits assumed): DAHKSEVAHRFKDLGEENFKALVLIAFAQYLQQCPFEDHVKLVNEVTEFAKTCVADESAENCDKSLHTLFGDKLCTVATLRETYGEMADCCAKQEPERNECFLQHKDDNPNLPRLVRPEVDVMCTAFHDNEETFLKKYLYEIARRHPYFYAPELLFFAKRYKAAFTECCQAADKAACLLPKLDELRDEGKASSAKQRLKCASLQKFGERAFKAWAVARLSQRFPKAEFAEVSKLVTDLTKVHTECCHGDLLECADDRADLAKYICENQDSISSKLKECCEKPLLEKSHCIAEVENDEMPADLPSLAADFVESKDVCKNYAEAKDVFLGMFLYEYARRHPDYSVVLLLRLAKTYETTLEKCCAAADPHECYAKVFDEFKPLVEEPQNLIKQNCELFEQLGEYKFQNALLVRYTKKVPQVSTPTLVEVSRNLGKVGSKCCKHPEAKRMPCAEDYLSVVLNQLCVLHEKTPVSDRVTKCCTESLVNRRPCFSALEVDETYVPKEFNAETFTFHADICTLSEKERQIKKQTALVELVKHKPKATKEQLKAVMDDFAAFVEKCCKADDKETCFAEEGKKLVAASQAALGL

Binder	binding result (human serum albumin)	EC50 [1] [µg/mL]
AB120 (antibody, V domains shown, also called 06-AB-120; anti-Hyr1 mAb AB120) VH: EVQLVQSGGGLVQPGGSLGLSCAASGFIFTSYAMTWVRQAPGKGLEWVSVITGNVGTSYYADSVKGRFTISRDNSKKTVSLQMNSLRAEDTAIYYCVKTRYDFSSGYYFDDWGQGTLVSVSS VL: DIVMTQSPSSVSASVGDKVTITCRASQGISRWLAWYQQKPGEAPELLIYAASSLQSGVPSRFSGSGSGTDFTLTISSLQPEDFATYYCQQANSFPITFGQGTRLQIK	no binding	0.104
AB121 (antibody, V domains shown, also called 06-AB-121; anti-Hyr1 mAb AB121) VH: EVQLVESGGTLVQPGGSLRLSCAASGFTFSDYWMNWVRQAPGKGLEWVANIKQDGSEKYYVDSLRGRVTISRDNAQNSVFLQMHSLSVEDTAVYYCARDGYTFGPATTELDHWGRGTLVSVSS VL: QLVLTQPPSVSVSPGQTASITCSGDELRNKYTSWYQQKSGQSPVLVIYQDNNRPSGIPERFSGSQSGDTATLTISGTQAVDEADYYCQAWVSQTLVFGGGTKLTVL	no binding	0.0765
AB122 (antibody, V domains shown, also called 06-AB-122; anti-Hyr1 mAb AB122) VH: EVQLVQSGGGLAQPGRSLRLSCAASGFGFDDFAMHWVRQPPGKGLEWVSGLTWNGGSIDYAGSVRGRFTISRDNAKNSLFLQMNSLRAEDTALYYCAKGLSGGTMAPFDIWGQGTMVSVSS VL: QAGLTQPPSVSVAPGQTATIPCGGNNIGSKHVHWYQQKPGQAPVAVVYDDSDRPSGVPERFSGSNSGNTATLTISSVEAGDEADYYCQVWDRSSDHFWLFGGGTRLTVL	no binding	0.0496
AB123 (antibody, V domains shown, also called 06-AB-123; anti-Hyr1 mAb AB123) VH: EVQLLESGGGVVQPGRSLRLSCAASGFTFSNYGMHWVRQAPGKGLEWVAVVWFDGSYKYYTDSVKGRFTISRDNSKSTLYLQMNSLRAEDTAVYYCVSPIMTSAFDIWGPGTMVSVSS VL: QLVLTQPPSASGSPGQSVTISCTGTSSDVGGSNFVSWYQHHPGKAPKLMIYEVSQRPSGVPDRFSGSKSGNTASLTVSGLQADDEADYYCSSYAGSVVLFGGGTKLTVL	no binding	0.0533
